US20260193352A1 (published 2026)

Molecular target: T1, cynomolgus monkey PD-1 Fc fusion (cynomolgus monkey, UniProt B0LAJ3 25-170)
T1 construct: also called Cyno PD-1
Assay: SPR

T1 sequence (B0LAJ3 entry or part of it limits assumed, form in doubt): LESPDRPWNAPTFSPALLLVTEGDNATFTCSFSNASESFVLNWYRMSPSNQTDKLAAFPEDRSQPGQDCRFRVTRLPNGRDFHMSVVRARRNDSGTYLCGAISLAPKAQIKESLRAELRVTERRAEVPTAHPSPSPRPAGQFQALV

fold difference in KD (cynomolgus monkey PD-1 against human PD-1): < 2 fold
B1: PD-1-binding agent (comprising SEQ ID NOs: 1 and 2) (antibody, V domains shown)
VH: EVQLLESGGGLVQPGGSLRLSCAASGFTFSSYDMSWVRQAPGKGLEWVSTISGGGSYTYYQDSVKGRFTISRDNSKNTLYLQMNSLRAEDTAVYYCASPYYAMDYWGQGTTVTVSS
VL: DIQLTQSPSFLSAYVGDRVTITCKASQDVGTAVAWYQQKPGKAPKLLIYWASTLHTGVPSRFSGSGSGTEFTLTISSLQPEDFATYYCQHYSSYPWTFGQGTKLEIKR
